Source: patent CN114106184A

How the values were obtained:
[1] = target: CA125抗原 (Cancer Antigen 125) (human) (UniProt Q8WXI7); assay: SPR, Biacore T100, antigen coupled to chip, bispecific as analyte, 1:1 fit
[2] = target: CA125抗原 (Cancer Antigen 125) (human) (UniProt Q8WXI7); assay: SPR, Biacore T100, antigen on chip, 1:1 fit (repeats Table 1)
[3] = target: CA125抗原 (Cancer Antigen 125) (human) (UniProt Q8WXI7); assay: SPR, Biacore T100, antigen coupled to chip, nanobody as analyte, 1:1 fit
[4] = target: CA125抗原 (Cancer Antigen 125) (human) (UniProt Q8WXI7); assay: SPR, Biacore, comparator nanobody listed in Table 1

| Binder | Kd [2] | Kd [3] | Kd [4] | other results |
| --- | --- | --- | --- | --- |
| 抗CA125双特异性纳米抗体 4A4-(G4S)4-6C1 (bispecific antibody) QVQLQESGGGLVQAGTSLTLSCAASERTFSAYDMNWYRQAPGKERELVAAISWRGPITYVADSVKGRFTISRDNAKNTVYLQMNSLKPEDTAIYYCNAEPGPGYVGSYALSYWGQGTQVTVSSGGGGSGGGGSGGGGSGGGGSQVQLQESGGGLVQAGGSLRLSCAASGSMFSINAMRWYRQAPGKQRELVAAITSGGSTNYADSVKGRFTISRDNAKNTMYLQMNSLKPEDTAVYYCNAAQTRLPNSADRYEYDYWGQGTQVTVSS | – | – | – | Kd [1]: 0.0768 nM |
| VHH-CA125-2H7 (VHH, from another filing) VHH: ESGGGLVQAGGSLRLSCERSDAPHSPYTMGWFRQAPGKDREFVATITWSGGTTLYADSVKGRFTISRGIAKNTAYLQMNTLKPEDTAVYYCAVGLGGGAYREDHQYDYWGQGT | – | – | 0.718 nM | – |
| VHH-CA125-4C1 (VHH, from another filing) VHH: ESGGGLVQAGGSLRLSCAASGNTFNINAMGWYRQAPGKQRELVATITSGGSTNYADSVKGRFTISRDNAKNTVFLQMNSLKPEDTAVYYCNAVQTRLPNSPDRYEYDYWGQGT | – | – | 0.635 nM | – |
| VHH-CA125-4H10 (VHH, from another filing) VHH: ESGGGLVQPGGSLRLSCAASEFTLEHYAIGWFRQAPGKEREGVGCISSSQENTYVEDSAKGRFTISRDNVKNTVYLQMNSLKPEDTAVYYCAARRFGLCVISPGYFEVWGQGT | – | – | 0.285 nM | – |

Continued, in another order:

| Kd [2] | Kd [3] | Kd [4] | Binder | other results |
| --- | --- | --- | --- | --- |
| 0.198 nM | 0.198 nM | – | 抗CA125纳米抗体6C1 (VHH) VHH: QVQLQESGGGLVQAGGSLRLSCAASGSMFSINAMRWYRQAPGKQRELVAAITSGGSTNYADSVKGRFTISRDNAKNTMYLQMNSLKPEDTAVYYCNAAQTRLPNSADRYEYDYWGQGTQVTVSS | – |
| 3.59 nM | 3.59 nM | – | 抗CA125纳米抗体4A4 (VHH) VHH: QVQLQESGGGLVQAGTSLTLSCAASERTFSAYDMNWYRQAPGKERELVAAISWRGPITYVADSVKGRFTISRDNAKNTVYLQMNSLKPEDTAIYYCNAEPGPGYVGSYALSYWGQGTQVTVSS | – |
